Experimental findings from article PMC7818228, “Laser‐facilitated epicutaneous immunotherapy with hypoallergenic beta‐glucan neoglycoconjugates suppresses lung inflammation and avoids local side effects in a mouse model of allergic asthma” (Allergy, 2020) are described below.

Holding throughout (experiment): MST; in solution; Monolith NT.115 RED; Hill fit model for multiple binding; apparent dissociation constants (Kdapp); three independent binding experiments
Experiment [1] deals with soluble murine Fc-Dectin-1a receptor (mouse) (UniProt Q6QLQ4).
In experiment [2] the target is soluble receptor TLR5 (UniProt Q9JLF7).
Experiment [3] has as its target soluble receptor TLR5 (UniProt Q9JLF7 27-641, Supplement states soluble human TLR5 fused to an IgG1 Fc domain (Fc carrier left out; 2 copies assumed from Fc dimerisation); limits are the UniProt extracellular domain by convention; lysine/amine la). Particulars: both partners purified.

Sequence of soluble murine Fc-Dectin-1a receptor (mouse) (Q6QLQ4 71-244): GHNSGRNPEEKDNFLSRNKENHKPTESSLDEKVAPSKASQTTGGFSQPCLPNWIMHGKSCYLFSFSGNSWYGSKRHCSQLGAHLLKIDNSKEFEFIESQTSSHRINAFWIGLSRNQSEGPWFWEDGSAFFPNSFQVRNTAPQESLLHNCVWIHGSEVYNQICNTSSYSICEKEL
Sequence of soluble receptor TLR5 (UniProt Q9JLF7) (Q9JLF7 27-641): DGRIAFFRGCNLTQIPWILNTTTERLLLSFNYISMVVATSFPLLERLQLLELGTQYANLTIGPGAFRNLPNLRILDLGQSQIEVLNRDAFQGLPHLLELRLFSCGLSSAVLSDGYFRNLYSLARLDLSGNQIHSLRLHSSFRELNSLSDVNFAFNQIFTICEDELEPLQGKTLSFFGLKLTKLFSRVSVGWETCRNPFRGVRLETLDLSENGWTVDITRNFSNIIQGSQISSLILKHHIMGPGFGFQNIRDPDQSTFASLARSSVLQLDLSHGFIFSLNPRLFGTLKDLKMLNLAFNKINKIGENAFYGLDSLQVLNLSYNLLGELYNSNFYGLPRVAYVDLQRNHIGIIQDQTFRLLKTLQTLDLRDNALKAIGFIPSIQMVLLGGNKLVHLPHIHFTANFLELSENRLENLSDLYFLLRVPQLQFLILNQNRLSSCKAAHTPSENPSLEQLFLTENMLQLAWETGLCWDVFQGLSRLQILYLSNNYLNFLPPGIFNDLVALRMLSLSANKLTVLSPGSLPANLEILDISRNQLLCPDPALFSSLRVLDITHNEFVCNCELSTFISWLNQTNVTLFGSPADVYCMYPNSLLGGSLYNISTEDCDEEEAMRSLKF
Sequence of soluble receptor TLR5 (UniProt Q9JLF7 27-641, Supplement states soluble human TLR5 fused to an IgG1 Fc domain (Fc carrier left out; 2 copies assumed from Fc dimerisation); limits are the UniProt extracellular domain by convention; lysine/amine la) (Q9JLF7 27-641): as above

For the molecule “laminarin-ovalbumin neoglycoconjugate (LamOVA) (from UniProt P01012 1-386)”, in experiment [1], the Kd worked out at 170 nM; the Kdapp counted on the laminarin concentration (carbohydrate to protein ratio 0.6) worked out at 0.99 µM; the Kdapp counted on the laminarin concentration (carbohydrate to protein ratio 2.5, anthrone method) was determined as 4.22 µM. Also, in the experiment with soluble receptor TLR5 [2], the Kdapp (concentration basis not stated; compared with the 0.99 µM for Dectin-1) is 6 µM.

B1: ovalbumin (EndoFit Ovalbumin, endotoxin-free) (natural protein, UniProt P01012 1-386, looked up)
chain: MGSIGAASMEFCFDVFKELKVHHANENIFYCPIAIMSALAMVYLGAKDSTRTQINKVVRFDKLPGFGDSIEAQCGTSVNVHSSLRDILNQITKPNDVYSFSLASRLYAEERYPILPEYLQCVKELYRGGLEPINFQTAADQARELINSWVESQTNGIIRNVLQPSSVDSQTAMVLVNAIVFKGLWEKAFKDEDTQAMPFRVTEQESKPVQMMYQIGLFRVASMASEKMKILELPFASGTMSMLVLLPDEVSGLEQLESIINFEKLTEWTSSNVMEERKIKVYLPRMKMEEKYNLTSVLMAMGITDVFSSSANLSGISSAESLKISQAVHAAHAEINEAGREVVGSAEAGVDAASVSEEFRADHPFLFCIKHIATNAVLFFGRCVSP
notes: ovalbumin (OVA), endotoxin-free commercial preparation; crystal structure 1OVA named for it; Commercial ovalbumin; also called unconjugated OVA; soluble OVA; source: bought: InvivoGen (EndoFit Ovalbumin)
In the case of B1, the Kd was found to be 5330 nM in experiment [1] and 800 ± 300 nM with soluble receptor TLR5 [3].
